The nature of the data set: yeast display, Sf9 membrane polyspecificity reagent, FACS + sequencing; frameworks hold sequencing errors. The method in brief:
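Synthetic nanobody libraries on Saccharomyces cerevisiae BJ5465 were galactose-induced for 36–48 hours, stained 1 hour at 4 °C with 10% biotinylated, detergent-solubilized Sf9 membrane reagent and enriched on streptavidin microbeads. FACS then separated cells into low and high (top ~1%) gates by anti-HA (expression) and streptavidin (reagent binding) fluorescence. Genes were colony-PCR amplified, MiSeq 2 × 250 sequenced and CDR-length filtered. A clone's polyreactivity label is that of its gate of origin.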
Turning to “QVQLVESGGGLVQAGGSLRLSCAASGFTIPVYVMGWYRQAPGKERELVAAITRTGGRTYYADSVKGRFTISRDNAKNTVYLQMNSLKPEDTAVYYCAAFTHRYGISEFDYWGQGTQVTVSS”, the “polyreactivity (PSR sort gate)” value was “high polyreactivity”.
Regarding “QVQLVESGGGLVQAGGSLRLSCAASGSNFLGNAMGWSIQAPGKERELVAAISSITGRTYYADSVKGRFTISRDNAKNTVYLQMNSLKPEDTAVYYCAAVQGANYYNEFDYWGQGTQVTVSS”, the “polyreactivity (PSR sort gate)” value is listed as “high polyreactivity”.
Under “QVQLVESGGGLVQAGVSLRLSCAASGRIFGYNDMGWYRQAPGKERELVAAINWTGGSTYYADSVKGRFTISRDNAKNTVYLQMNSLKPEDTAVYYCNADARTKWVQTHTDFITDYDYWGQGTQVTVSS” stands “low polyreactivity”.
Take “QVQLVESGGGLVQAGGSLRLSCAASGSIFGIYAMGWYRQAPGKERELVAAISRGGSTYYADSVKGRFTISRDNAKNTVYLQMNSLKPEDTAVYYCNAKLIVTPGRGDYWGQGTQVTVSS”: the “polyreactivity (PSR sort gate)” value is reported as “high polyreactivity”.
Take “QVQLVESGGGLVQAGGSLRLSCAASGITFKTYDMGRYRQAPGKERELVATINRGSRTNYADSVKGRFTISRDNAKNTVYLQMNSLKPEDTAVYYCSAHDTTFIPSPDGDYLGQGTQVTVSS”: the “polyreactivity (PSR sort gate)” value is on record as “low polyreactivity”.
Under “QVQLVESGGGLVQAGGSLRLSCAASGITFNDYTMGWYRQGPGKERELVAVNTKTGSRTYYADSVKGRFTISRDNAKNTVYLQMNSLKPEDTAVYYCNALYYIHYYQGYGYWGQGTQVTVSS” stands “high polyreactivity”; under “QVQLVESGGGLVQAGGSLRLSCAASGSIFGHNAMGWYRQAPGKERELVAAITSTGGSTYYADSVKGRFTISRDNAKNTVYLQMNSLKPEDTAVYYCAKGWYAGYPYDYWGQGTQVTVSS”, “low polyreactivity”; under “QVQLVESGGGLVQAGGSLRLSCAASGLIFSHYTMGWYRQAPGKERELVAAITSSGGSTYYADSVKGRFTISRDNAKNTVYLQMNSLKPEDTAVYYCNVDYYEPSWYDDDYWGQGTQVTVSS”, “low polyreactivity”.
Under “QVQLVESGGGLVQAGGSLRLSCAASGSTFGRNAMGWYRQAPGKERELVATINWNGGRTYYADSVKGRFTISRDNAKNSVYLQMNSLKPEDTAVYYCNATKTGPATVRYYYWGQGTQVTVSS” stands “high polyreactivity”; under “QVQLVESGGGLVQAGGSLRLSCAASGRIFPKYAMGGDRQAPGTERPLVAAISSSGGSKYYADSVKGRFTISRDNAKNTVYFQMNSLKPEDTAVYYCNVDKATRDRYPGFDYWGQGTQVTVSS”, “high polyreactivity”.
Under “QVQLVESGGGLVQAGGSLRLSCAASGSTFESNAMGWYRQAPGKERELVAAISRGGNTYYADSVKGRFTISRDNAKITVYLQMNSLKPEDTAVYYCNVDRGKPVPPSEYWGQGTQVTVSS” stands “low polyreactivity”.
For “QVQLVESGGGLVQAGASLRLSCAASGFTFDSYAMGWYRQAPGKDRELVAVISATGAITYYADSVKGRFTISRDNAKNTVYLPMNSLKPEDTAVYYCAVQVSWSYYRYGYWGQGTQVTVSS”, the “polyreactivity (PSR sort gate)” value is reported as “low polyreactivity”.
For “QVQLVESGGGLVQAGGSLRLSCAASGSILGYYAMGWYRQAPGKERELVAAITASGGSTYYADSVKGRFTISRDNAKNTVYLQMNSLKPEDTAVYYCAARRIAPYGRYDYWGQGTQVTVSS”, the “polyreactivity (PSR sort gate)” value is “low polyreactivity”.
Take “QVQLVESGGGIVQAGGSLRLSCAASGSIFRWNAMGWYRQAPGKESELVAAIRWSSGSTYYADSVKGRFTISRDNAKNTVYLQMNSLKPEDTAVYYCAASRATIKYPKREYWGQGTQVTVSS”: the “polyreactivity (PSR sort gate)” value is “high polyreactivity”.
Under “QVQLVESGGGLVQAGGSLRISCAASGSIFGWYAMGWYRPAPGKEREFVATISRRGGRTYYADSVKGRFTISRDNAKNTVYLQMNSLKQEDTAVYYCAANSVYKEDYWGQVTQVTVSS” stands “high polyreactivity”.
“QVQLVESGGGLVQAGGRLRLSCAASGSFFGGSGMGWYRQAPGKERELVAAITSGSSTYYADSVNGRFTISRDNAKNTVYLQMNSLKPEDSAVYYCAARPYPHSAYEGDYWGRGTQVTVSS”: the “polyreactivity (PSR sort gate)” value is on record as “low polyreactivity”.
Under “QVQLEESGGGLVQAGGSLRLSCAACGSIFDNYAMGWYRQAPGKERELVAVISKRGGRTYYADSVKGRFTISRDNAKNTVYLQMNSLKPEDTAVYYCANGGQGSTPTSAWAKYDYWVQGTQVTVSS” stands “high polyreactivity”; under “QVQLVESGGGIVQAGGSLRLSCAASGRIFVGYAMGWYRQAPGKEREFVAAITFRGGTTYYADSVKGSFTISRDNAKNTVYLQMNSLKPEDTAVYYCAVPHYLYSVEYGYWGQGTQVTVSS”, “low polyreactivity”.
As for “QEQLVESGGGLVQAGGSLRLSCDASGRTLSRYTMGWYRQPPGQETELVAAISTSGSTYYADSVKGRFTISRDNAKNPVYLQMNSVKPDDTGVYYCNAVGLYLHYATGYDYWGQGRQVTVSS”, the “polyreactivity (PSR sort gate)” value is “high polyreactivity”.
Under “QVQLVESGGGLVQAGGSLRLSCAASGFIFSTYAMGWYRQAPGKERELVAAITNSGGSTYYADSVKGRFTISRDNAKNTVYLQMNSLKPEDTAVYYCARRRSYRDNYWGQGTQVTVSS” stands “high polyreactivity”.
“QVQLVESGGALVQAGGSLRLSCAASGSTLVTNAMGWYRKAPGKERELVAAITFSGGTTYYADSVKGRFTISRDNAKNTVYLQMNSLTPEDTAVYYCGAEIWLEYVGYDYWGQGTQVTVSS”: the “polyreactivity (PSR sort gate)” value is reported as “high polyreactivity”.
Under “QVQLVESGGGLVQAGGSLRLSCAASGSTIKTYATMGWYRQAPGKERELVAAITACTSTNYADSVKGRFTISRDNAKNTVYLQMNSLKPEDTAVYYGAADDYYNWYLGEPGDYWGQGTQVTVSS” stands “low polyreactivity”.
Under “QVQLVESGGGLVQAGGSRRLSCAASGFIFSGYAMGWYRQERGKERELVAAITRSGSRTYYADSVKGRFTISRDNAKNTVYLQMNSLKPEDTAVYYCAKDKPKYGISTIDYWGQGTLVTVSS” stands “high polyreactivity”.
“QVHLVESGGGLVQAGGSLRLSCAASGRTIDRNTMGWYRQAPVKERELVATITWSVGRTYYADSVKGRFTISRDNGKITVYVQMISMKPEDTGVYFCAAGIYAYKYESWGHGTQVTVSS”: the “polyreactivity (PSR sort gate)” value is recorded as “high polyreactivity”.
Under “QVQLVESGGGLVQAGGSLRLSCAASGSIYYNAMGWYRQAPGKERELVASISTGDSTDYADSVKGRFTISRDNAKNTVYLQMNSLKPEDTAVYYCAADTRLGYWDDYWGQGTQVTVSS” stands “low polyreactivity”; under “QVQLVESGGGLVKAGGSLRLSCAASGSISSGYVMGWYRQAPGKERELVASISYSGTSTYYADSVKGRFTISRDNAKNTVYLQMNSLKPEDTAVYYCAALSRRRFGYWGQGTQVTVSS”, “high polyreactivity”; under “QVQLVESGGGLVQAGGSLSLSCAASGSTFYYNAMGWYRQAPGKEREFVAAINWRGGSTYYADSVKGRFTISRDNAKNTVYLQMNSLKPEDTAVYYCSAEEASTYYYVRSGYDYHFWEMYSWGQGTQVTVSS”, “low polyreactivity”.
Under “QVQLVESGGGLVQAGGRLRLSCAASGLTFAKYSMGWYRQAPGTERELVAAITASGASTYYADSVKGRFTISRDNAKNTVYLQMNSLKPEDTAVYYCAVRRYYNDYWGQGSQVTVSS” stands “low polyreactivity”.
Under “QVQLVESGGGLVQAGGSLRLICAASGRIFHYYAMGWYRQAPGKERELVAAIRWSGGDTYYADSVKGRFTISRDNAKNTVYLQMNSLKPEDTAVYYCAAYDHVYEYDYWGQGTQVTVSS” stands “low polyreactivity”; under “QVQLVESGGGLVQAGGSLRLSCAASGSIYGLYAMGWSREAPGKEREVVATITESGGSTYYADSVKGRFTISRDNAKNTVYLQMKSLKPEDTAVYYCHSDEVSAQYDDWGQGTQVTVSS”, “low polyreactivity”; under “QVHLVESGGGLVQAGGSLRLSCAASGFTFRDYAMGWYRQAPGKERELVAAIDIGTTTYYADSVKGRFTISRDNAKNTVYLQMNSLKPEDTAVYYCAAYSFASVYFGTGYDYWGQGTQVTVSS”, “low polyreactivity”.
For the sequence “QVQLVESGGCLVQAGGSLRLSCAASGSTLRSHAMGWYRQAPGKERELVASISAGGSTSYADSVKGRFTISRDNAKNTVYRQMNSLKPEDTAVYYCAADNSVGSYDYWGQGTEVTVSS”, the “polyreactivity (PSR sort gate)” value is given as “low polyreactivity”.
Under “HVQVVESGGGLVQAGGSLRLSCAASGSTFPANAMGWYRQAPGKERELVAAISSSGGRTYYADSVKGRFTISRDNAQKTVYLQMNSLKPEDTAVYYCAAYGGGGYKYDYWGQGTQVSVSS” stands “low polyreactivity”; under “QVQLVESGGGLVQAGGSLRLSCAASGSTFWFYPMGRYRQAPGKERELVAVISNSGSTYYADSVKGRFTISRDNAKNTVYLQMNSLKPEDTAVYYCNKDGGGDSYWYDYWGQGTQVTVSS”, “low polyreactivity”; under “QVQLVESGGGLVQAGGSLRLSCAASGRTFILNAMGLYRQAPGKERELVAAISWSGGSTYYADSVKGRFTISRDNAKNTVYLQMNSLKPEDTAVYYCAAETYAYLFHTYDYWGQGTQVTVSS”, “low polyreactivity”.
In the case of “QVQLVESGGGLVQAGGSLRLSCAASGSTFEGNAMGWYRQAPGKERELVAAISSGGRTYYADSVKGRFTISRDNAKNTVYLQMNSLKPEDTAVYYCAAYVRRGFDWGQGTQVTVSS”, the “polyreactivity (PSR sort gate)” value is “high polyreactivity”.
Under “QVQLVESGGGLVQAGGSLRLSCAASGFIFVKYAMGWNRQAPGKERELVAAITNGCSTYYADSVKGRFTISRDNAKNTVYLQMNSLKPEDTAVYYCAAGHPEYDFWGQGTQVTVSS” stands “low polyreactivity”; under “QVQLQESGGGLVQVGGSQRLSCAASGNIFYNYAMGWYRHAQGKEREFDATINHGTSINYADSVKGRFTISRDNAKNSVYLQMNSLKPEDTAVYYCAADLSWTDNLFYWGQGTQVTVSS”, “low polyreactivity”; under “QVQLVESGGGLVQAGGSLRLSCAASGSTFYLNAMGWYRQAPGKERELVAAINSGDSTNYADSVKGRFTISRDNAKNSVYLQMNSLKPEDNAVYYCARDRYPSEGDYWGQGTQVTVSS”, “low polyreactivity”.
Under “QVQLVESGGGLVQAGGSRRLSCAPSGSIIGEYAMGWYRQAAGKERELVAAINVNGGRTYYADSVKGRFTISRDNAKYTVYLQMNRLKPEETAVYYCNAGYYLTLDYWGQGTQVTVSS” stands “high polyreactivity”.
For “QVQLVESGGGLVQAGGSLRLSCAASGRIISSYAMGWYRQAPGKERELVAAITSSGGSTYYADSVKGRFTISRDNAKNTVYLQMNSLKPEDTAVYYCAARVFARYYTAYGVETRREEDYWGQGTQVTVSS”, the “polyreactivity (PSR sort gate)” value is recorded as “low polyreactivity”.
